Experimental data taken from patent US20230133118A1, “COMPOSITIONS AND METHODS FOR TREATING CANCER” (Adagene AG, priority 2020, published 2023).
Values joined by “and” are separate entries in the source; they are usually repeats but may differ in a detail not shown here. Identical values can stand only once. Like-named read-outs stand apart in the source and are kept apart here. Marks after values point to notes of the source that are not given here.

Assays:
rabbit blood = test: In vitro hemolysis in rabbit blood; settings: concentrations up to 2.54 mg/mL
Excerpt: Furthermore, with the cytoplasmic nature of the staining, no significant biological relevancy is anticipated.

[1] = GLP repeat-dose toxicity and safety pharmacology in cynomolgus monkeys; type: in vivo, cynomolgus monkey
4T1 breast cancer cells [2] = test: 4T1 breast cancer model, ADG106 with docetaxel; type: in vivo, BALB/c mice; settings: 5 mg/kg; ADG106 i.p. twice a week 4 doses, Docetaxel i.v. once a week 3 doses
Excerpt: (§1) Tumor growth was monitored twice weekly and is reported as mean tumor volume ±SEM over time.

[3] = system: L5178-S murine T cell lymphoma; test: L5178-S murine T cell lymphoma syngeneic model; type: in vivo, DBA/2 mice; settings: 20 mg/kg i.p. once every 3 days
Excerpt: The animals were randomized and treatment started when tumor volumes reach 50-80 mm^3, or on the day of cell inoculation (FIGS. 17A and 17C). Each group consisted of 8 tumor-bearing mice. […] Tumor growth and animal body weight were monitored every 2-3 days.

LLC-CD20 cells = test: LLC-CD20 lung cancer model, ADG106 with rituximab; type: in vivo, C57BL/6 mice; settings: 10 mg/kg i.p. twice a week for 3 weeks
Excerpt: C57BL/6 mice (n=6 per group, female, 6-8 weeks old) were transplanted subcutaneously with 5×10^5 LLC-CD20 cells, a Lewis lung cancer cell line expressing CD20. […] Tumor growth was monitored twice weekly and reported as mean tumor volume ±SEM over time.

[4] = human, in vivo, iv
Procedure: (§3) Blood samples for PK analysis were collected at Cycle 1 (Day 1: pre-dose and 2, 6, 12, and 24 hours after the end of infusion; once on Days 8, 15, and 22), Day 1 pre-dose and 2 hours after the end of infusion of subsequent cycles, and at the End of Treatment. […] PK parameters were estimated using a non-compartmental method with WinNonlin.

[5] = system: peripheral CD4+ and CD8+ T cells; test: Ki-67 expression on peripheral T cells of patients by flow cytometry; type: in vivo, human
Excerpt: T cell proliferation was examined by analyzing Ki-67 expression using flow cytometry analysis. Soluble CD137 (sCD137) levels in plasma were also examined using a validated MSD-based electrochemiluminescence assay.

T cells = test: T cell activation in vitro (with anti-CD3 antibody co-treatment); type: cell-based
Excerpt: To elaborate, there could be unquantified/uncertain combination effect with other MOAs, particularly with Immuno-oncology (IO) agents which could be potentially additive and/or synergistic for AEs.

CD137 [6] = target: T1, CD137 (Homo sapiens, UniProt Q07011); test: Receptor occupancy calculated from drug plasma concentration and KD
MC38 colon cancer cells = test: MC38 colon cancer model, ADG106 with local radiation; type: in vivo, C57BL/6 mice; settings: 10 mg/kg twice a week for 3 weeks
Excerpt: C57BL/6 mice (n=8 per group, female, 6-8 weeks old) were transplanted subcutaneously with 5×10^5 MC38 colon cancer cells. […] Tumor growth was monitored twice weekly and reported as mean tumor volume ±SEM over time.

NK (CD16+/CD56+) cells [7] = test: TBNK flow cytometry of patient peripheral blood, NK cell percentage; type: in vivo, human; settings: 32 patients analyzed
[8] = system: CT-26 (colon carcinoma), H22 (liver cancer), EMT6 (breast cancer); test: Single agent efficacy in syngeneic mouse tumor models (CT-26, H22, EMT6); type: in vivo
CD137 [9] = test: Binding to recombinant CD137 and CD137 on activated T cells; parameters: species or system human
Excerpt: This was expected given that CD137 is known to function as a co-stimulatory T cell receptor. […] This property might prevent the potential of dual independent activation of CD137 potentially accounting for its distinct pharmacology and toxicology profile among this class of therapeutic antibodies.

[10] = Clinical pharmacokinetics, serum ADG106 by ELISA, non-compartmental analysis
Procedure: as §3

NK (CD16+/CD56+) cells [11] = test: TBNK flow cytometry of patient peripheral blood, NK cell percentage; type: in vivo, human; settings: for Percentage of NK cells (CD3-CD56+/CD16+), Postdose: individual patients
Procedure: Pre- and post-treatment peripheral blood samples from 31 patients in a phase 1 trial were collected for biomarker analyses. The TBNK flow cytometry assay was employed to measure the composition of T (CD3+, CD4+/CD8+ subsets), B (CD19+) and NK (CD16+/CD56+) cells in peripheral blood samples. NK cell levels were determined as percentages of CD45+ lymphocytes and absolute cell counts.

CD137 receptor = test: Cellular NFκB reporter gene assay (CD137-expressing NFκB-Luc Jurkat reporter cells); type: cell-based, human; settings: functional cellular NFκB reporter gene assay
Procedure: (§2) The CD137-expressing NFκB-Luc Jurkat reporter cells were stimulated with the anti-CD137 antibodies in the absence (left panel) or presence (right panel) of co-cultured CHO-K1 cell expressing human FcγRIIb. Luciferase activity was measured by bioluminescence assay.

human blood = test: Cytokine release in human blood ex vivo; type: cell-based
4T1 breast cancer cells [12] = test: 4T1 breast cancer model, ADG106 with ADG116; type: in vivo, BALB/c mice; settings: ADG106 5 mg/kg, ADG116 2 mg/kg i.p. twice a week for 2 weeks
Excerpt: as §1

CD137 [13] = target: T1, CD137; test: Cellular NFκB reporter gene assay (CD137-expressing NFκB-Luc Jurkat reporter cells); type: cell-based; parameters: expressed in transfected cells; host or cells: NFκB-Luc Jurkat reporter cells (with or without co-cultured CHO-K1 cells expressing human FcγRIIb)
Procedure: as §2

Lewis lung cancer cells = test: Lewis lung cancer model, ADG106 with anti-PD-1 antibody 2E5; type: in vivo, C57BL/6 mice; settings: 5 mg/kg i.p. twice a week for 2 weeks
Excerpt: C57BL16 mice (n=8 per group, female, 6-8 weeks old) were transplanted subcutaneously with 5×10^5 Lewis lung cancer cells. […] Tumor growth was monitored twice weekly and reported as mean tumor volume ±SEM over time.

T1 sequence (Q07011 24-255): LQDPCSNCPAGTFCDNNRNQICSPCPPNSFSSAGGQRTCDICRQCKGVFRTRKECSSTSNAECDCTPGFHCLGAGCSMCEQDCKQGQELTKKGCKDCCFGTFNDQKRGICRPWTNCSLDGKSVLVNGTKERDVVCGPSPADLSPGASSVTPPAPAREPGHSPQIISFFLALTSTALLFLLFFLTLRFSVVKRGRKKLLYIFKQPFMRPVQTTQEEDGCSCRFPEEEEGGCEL

Substance: ADG106: fully human agonistic anti-CD137 monoclonal IgG4 antibody; heavy chain SEQ ID NO: 10, light chain SEQ ID NO: 11
- hemolysis (rabbit blood): no ADG106-related hemolysis
- NOAEL and HNSTD ([1]; cynomolgus monkey, in vivo): > 200 mg/kg
- NOEL and NOAEL ([1]; once weekly IV infusion up to 29 days): 200 mg/kg
- anti-tumor activity, mono-therapy (4T1 breast cancer cells [2]): marginal anti-tumor activity
- antitumor activity [3]: has antitumor activity
- tumor growth, single agent (LLC-CD20 cells): only weakly inhibited tumor growth
- T1/2 ([4]; 0.03 mg/kg): 87 h
- T1/2 ([4]; 0.3 mg/kg): 159 h
- T1/2 ([4]; 1 mg/kg): 146.3 h
- T1/2 ([4]; 3 mg/kg): 149 h
- increase in the frequency of Ki-67+CD4+ T cells ([5]; patient R011): increased about one fold
- increase in the frequency of proliferating CD8+ T cells ([5]; patient R011): four to five fold increase
- total CD8+ T cells expressing Ki-67 at peak ([5]; patient R011, 21 days after infusion): ~25%
- concentration range triggering observable, not maximal T cell activation (T cells; in vitro): 1 to 3 µg/mL
- concentration range triggering robust T cell activation (T cells; with anti-CD3 antibody co-treatment): ≥ 10 µg/mL
- Receptor occupancy (CD137 [6]; 0.03 mg/kg): 58%
- Receptor occupancy (CD137 [6]; 0.1 mg/kg): 82%
- Receptor occupancy (CD137 [6]; 0.3 mg/kg): 93%
- Calculated Receptor Occupancy (CD137 [6]; 1 mg/kg): 98%
- antitumor activity, alone (MC38 colon cancer cells): marginal if any antitumor activity
- patients with a decrease of the NK cell level (NK (CD16+/CD56+) cells [7]): 6%
- patients with no change of the NK cell level (NK (CD16+/CD56+) cells [7]): 6%
- patients with an increase of the NK cell level in peripheral blood (NK (CD16+/CD56+) cells [7]; after first cycle): 88%
- single agent efficacy in CT-26, H22 and EMT6 syngeneic models ([8]; mouse, in vivo): single agent anti-tumor efficacy
- median effective dose (ED50) ([8]; syngeneic mouse liver and breast cancer models): approximately 1 mg/kg
- affinity to CD137 on activated cynomolgus monkey and human T cells (CD137 [9]): low nanomolar affinity
- AUC(0-t) ([10]; Chinese study, 0.1 mg/kg IV): 255 µg·h/mL
- CLz ([10]; Chinese study, 0.1 mg/kg IV): 8.88 mL/day/kg
- AUC(0-t) ([10]; Chinese study, 0.5 mg/kg IV): 1761 µg·h/mL
- CLz ([10]; Chinese study, 0.5 mg/kg IV): 6.72 mL/day/kg
- T½ ([10]; Chinese study, 0.5 mg/kg IV): 146 h
- AUC(0-t) ([10]; Chinese study, 1.5 mg/kg IV): 4162 µg·h/mL
- CLz ([10]; Chinese study, 1.5 mg/kg IV): 7.92 mL/day/kg
- T½ ([10]; Chinese study, 1.5 mg/kg IV): 180 h
- AUC(0-t) ([10]; Chinese study, 3 mg/kg IV): 10016 µg·h/mL
- CLz ([10]; Chinese study, 3 mg/kg IV): 6 mL/day/kg
- T½ ([10]; Chinese study, 3 mg/kg IV): 214 h
- AUC(0-t) ([10]; Chinese study, 5 mg/kg IV): 20966 µg·h/mL
- CLz ([10]; Chinese study, 5 mg/kg IV): 5.28 mL/day/kg
- T½ ([10]; Chinese study, 5 mg/kg IV): 173 h
- AUC(0-t) ([10]; Chinese study, 10 mg/kg IV): 39658 µg·h/mL
- CLz ([10]; Chinese study, 10 mg/kg IV): 5.52 mL/day/kg
- T½ ([10]; Chinese study, 10 mg/kg IV): 132 h
- AUC(0-t) ([10]; US study, cycle 1, 0.03 mg/kg IV, n=1): 0.626 µg·h/mL
- AUC(0-t) ([10]; US study, cycle 1, 0.1 mg/kg IV, n=1): 0.668 µg·h/mL
- AUC(0-t) ([10]; US study, cycle 1, 0.3 mg/kg IV, n=1): 1.387 µg·h/mL
- AUC(0-t) ([10]; US study, cycle 1, 1 mg/kg IV, n=3): 3.8767 µg·h/mL
- AUC(0-t) ([10]; US study, cycle 1, 3 mg/kg IV, n=3): 18.42 µg·h/mL
- mean half-life ([10]; doses ≥0.5 mg/kg): around 7 days
- Percentage of NK cells (CD3-CD56+/CD16+), Postdose (NK (CD16+/CD56+) cells [11]; C1D8): 25.14% and 28.38% and 11.18% and 22.03% and 35.85% and 36.13% and 8.25% and 22.79% and 46.22% and 15.01% and 14.06% and 34.54% and 11.84% and 32.43% and 10.14% and 23.1% and 55% and 35.4% and 19.5% and 14.7% and 25%
- Percentage of NK cells (CD3-CD56+/CD16+), Postdose (NK (CD16+/CD56+) cells [11]; C1D15): 21.21* % and 22.19* %
- Percentage of NK cells (CD3-CD56+/CD16+), Postdose (NK (CD16+/CD56+) cells [11]; C1D21): 39.58^# % and 4.27^# % and 20.01^# % and 34.74^# % and 40.45^# % and 26.93^# % and 27.23^# % and 18.81^# % and 16.65^# %
- dose saturating CD137 receptors on NK cells (NK cell proliferation effect) (NK (CD16+/CD56+) cells [11]; patients): ≥ 1.5 mg/kg
- potency to activate recombinant human, monkey, mouse, and rat CD137 receptors (CD137 receptor): comparable nanomolar potency
- cytokine (IL-2, IL-4, IL-6, IL-10, TNF-α, IFN-γ, IL-17) release (human blood): did not stimulate cytokine
- anti-tumor activity, monotherapy (4T1 breast cancer cells [12]): showed anti-tumor activity
- concentration saturating activation of CD137 receptor signaling (CD137 [13]; crosslinking-dependent, in vitro): 1 µg/mL
- EC80 of NFκB signaling activation (CD137 [13]; nonlinearly regressed concentration-effect curve): ≤ 1.8 µg/mL
- human CD137 agonism following crosslinking (CD137 [13]; with crosslinking): function as agonists
- tumor growth, single agent (Lewis lung cancer cells): significantly inhibit tumor growth
